Measured values: patent publication US11643670B2, “Methods of enhancing chromosomal homologous recombination” (Massachusetts Institute of Technology, priority 2018, dated 2023)

How the values were obtained:
[1] = system: RAD51 puncta; experiment: Immunocytochemistry for RAD51 puncta in zygotes; format: cell-based, mouse
Description: Zygotes were fixed overnight at 4° C. in 4% PFA+0.1% Tween-20 in PBS and then briefly transferred to acidified Tyrode's (Sigma T1788) to remove the zona. After washing in PBS+0.1% Tween-20 (PBST), zygotes were permeabilized in PBS+1% Triton X-100 for 1 hour at 4° C. and then blocked for 1 hour at room temperature in blocking solution (PBS+3% BSA+5% normal goat serum). Primary antibody (rabbit anti-RAD51, Abcam ab63801, 1:500) was diluted in blocking solution and applied to coverslips overnight at 4° C. Cells were washed 3 times in PBST before application of secondary antibody (goat anti-rabbit IgG conjugate, Alexa Fluor 488, ThermoFisher A-11008) diluted in blocking solution for 1 hour at room temperature. Nuclei were counterstained with DAPI and coverslips were mounted to slides with Fluoromount Aqueous Mounting Medium (Sigma F4680). Cells were imaged on an Olympus Fluoview FV1000 confocal microscope with a 60× oil immersion objective and variable digital zoom. Raw image files were exported to FIJI^41 for Z-projection (sum slices), channel splitting, and scale bar generation.
Nonetheless, to more directly test the timing of zygotic ICHR, immunocytochemistry (ICC) was performed for RAD51 in uninjected, RAD51-injected, Cas9-injected (with Chd2-targeting crRNA), and Cas9- and RAD51-injected zygotes at three time points: G1 [9 hours post-fertilization (hpf), 1-hour post-injection (hpi)], G2 (14hpf, 6hpf, post S-phase), and M-phase (16hpf, 8hpi).

[2] = system: Chd2^R1684H locus; experiment: Genotyping of individual blastomeres of 2-cell embryos; format: cell-based, mouse; conditions: blastomeres collected at 24hpf, IVF strategy, co-injected with RAD51
Description: Zygotes were prepared by IVF as described above and cultured until 24hpf in FHM at 37° C. and 5% CO2. Two-cell embryos were transferred 10 at a time into room temperature acidified Tyrode's solution. Embryos were monitored by microscopy and were transferred back to FHM once the zona pellucida was dissolved. Individual blastomeres were collected via mechanical dissociation with a glass micropipette and transferred to 4 μL nuclease-free water. Blastomeres were then lysed and processed for genotyping as previously described.
After fertilization, the maternal and paternal pronuclei remain until the completion of S-phase, at which time the pronuclei fuse in preparation for mitosis. […] To begin to address the timing of zygotic ICHR, genotyping of individual blastomeres was performed in early 2-cell embryos generated through the IVF strategy and co-injected with RAD51. […] Because the blastomeres were collected early in the 2-cell stage, it is unlikely that all observed mosaicism resulted from editing events after the completion of mitosis. […]

[3] = system: Tyr^C89S locus; experiment: Tyr^C89S knock-in by three-component CRISPR, genotyping/albino phenotype of F0 pups; format: in vivo, mouse
Description: tracrRNA, crRNAs, and ssODNs were synthesized by Integrated DNA Technologies (TABLE 1). All injection mixtures were prepared in a final volume of 50 μL according to the following methodology: Using RNase-free water, reagents, and consumables, crRNA (final concentration 0.61 μM), tracrRNA (final concentration 0.61 μM), and ultrapure Tris-HCl, pH 7.39 (final concentration 10 mM, ThermoFisher) were mixed and incubated at 95° C. for 5 minutes. The mixtures were cooled to room temperature for 10 minutes on the benchtop, and then, EnGen Cas9-NLS S. pyogenes (New England Biolabs) was added to a final concentration of 30 ng/μL. The mixtures were incubated at 37° C. for 15 minutes before adding any remaining components: ssODN (final concentration 3 ng/μL or 30 ng/μL), RAD51 (Creative Biomart, final concentration 10 ng/μL). Injection mixtures were stored on ice and briefly heated to 37° C. prior to injection. For experiments utilizing RS-1, embryos were cultured in KSOM-AA (EMD Millipore MR-121-D) with […] RS-1 (Sigma) dissolved in DMSO or DMSO (Sigma, 1:1000) for 24 hours, washed, and cultured in EmbryoMax FHM HEPES Buffered Medium (Sigma) until collection for genotyping.
For all experiments except those described in FIG. 6, the male pronucleus was injected. Injections performed for the CPI portion of FIG. 6 were targeted to the cytoplasm. […]

B1: RAD51: recombinant human strand exchange protein RAD51 (Creative Biomart RAD51-134H), transcript variant 4 (protein, UniProt Q06609 2-339, looked up)
DNA repair protein RAD51 …: AMQMQLEANADTSVEEESFGPQPISRLEQCGINANDVKKLEEAGFHTVEAVAYAPKKELINIKGISEAKADKILAEAAKLVPMGFTTATEFHQRRSEIIQITTGSKELDKLLQGGIETGSITEMFGEFRTGKTQICHTLAVTCQLPIDRGGGEGKAMYIDTEGTFRPERLLAVAERYGLSGSDVLDNVAYARAFNTDHQTQLLYQASAMMVESRYALLIVDSATALYRTDYSGRGELSARQMHLARFLRMLLRLADEFGVAVVITNQVVAQVDGAAMFAADPKKPIGGNIIAHASTTRLYLRKGRGETRICKIYDSPCLPEAEAMFAINADGVGDAKD
**Q.** B1 was tested. Which “number of RAD51 puncta per zygote” value ([1]; G2 zygotes) did it give?
**A.** Its value is “single”.

**Q.** And the “zygotes Negative for RAD51 puncta” value ([1]; number of zygotes, G2 (14hpf))?
**A.** Its value is 25.

**Q.** And the “zygotes Positive for RAD51 puncta” value ([1]; number of zygotes, G2 (14hpf))?
**A.** Its value is 6.

**Q.** And the “mosaicism in embryos with an ICHR event in at least one cell” value [2]?
**A.** Its value is 4/6.

**Q.** What about the “pups with albino phenotype from homozygous KI of the Tyr^C89S allele” value ([3]; F0 pups with RAD51, 12% without) of the same molecule?
**A.** Its value is 44.4%.

**Q.** What about the “homozygous KI rate relative to injection without RAD51” value ([3]; Tyr locus) of the same molecule?
**A.** Its value is “more than doubled”.
